Measured values: US12674174B2, “Protoporphyrinogen oxidase (PPO) resistance plant” (PLANTARC BIO LTD., priority 2022, dated 2026)

B1: SEQ ID NO: 101: 4IVO_B. Structure of human protoporphyrinogen IX oxidase(R59Q) [Homo sapiens] (protein, listed as Homo sapiens)
chain: MGRTVVVLGGGISGLAASYHLSRAPCPPKVVLVESSERLGGWIRSVRGPNGAIFELGPQGIRPAGALGARTLLLVSELGLDSEVLPVRGDHPAAQNRFLYVGGALHALPTGLRGLLRPSPPFSKPLFWAGLRELTKPRGKEPDETVHSFAQRRLGPEVASLAMDSLCRGVFAGNSRELSIRSCFPSLFQAEQTHRSILLGLLLGAGRTPQPDSALIRQALAERWSQWSLRGGLEMLPQALETHLTSRGVSVLRGQPVCGLSLQAEGRWKVSLRDSSLEADHVISAIPASVLSELLPAEAAPLARALSAITAVSVAVVNLQYQGAHLPVQGFGHLVPSSEDPGVLGIVYDSVAFPEQDGSPPGLRVTVMLGGSWLQTLEASGCVLSQELFQQRAQEAAATQLGLKEMPSHCLVHLHKNCIPQYTLGHWQKLESARQFLTAHRLPLTLAGASYEGVAVNDCIESGRQAAVSVLGTEPNS
B2: SEQ ID NO: 98: PPO from Hesseltinella sp. Protein. (protein, listed as Hesseltinella sp.)
chain: MPRSIVVLGGGISGLSAAYYLSRLVPQAHIRLIESNKRAGGFIKTQQVNDHLIFEAGPRTLRPHGTSGTVLLDMIKDLDLSPLLVNIPKSHPSAQHRYIEYHGQINQLPSGLADMLLHSPPIMDSVITAGMREPFLARASTTKDESLYNFMERRFNEHTALNLMGAMAHGIYAGDAKQLSVHSTFPILAACEQEYGSVVLGMLSGKLSVESPRERQLADACRAKDPEWFKQMQQSSVLGFLPGLGALPSRLTQFLSSQPNVSMQLGETVSRLDGQSSHQIEITTSQGQIYHADHIVSTLPSHALARISMPTTTSLPHLTHNPSADVALVNLAYEKCKVKPGLDGFGFLTPHADTMPPSQFPGLLGMIFDSNSLGVQDQDSNMVRFTAMIGGADWNLAFGSLHDNDAISSKALTMATAALSKYLEIHESPAHYHCRILRQCIPQYLVGHRQRMNELHAALQHSFGHTMSVTGASYLGVSVPDCIKHSRMLIEDLVDTGALGSKQAVITGLEKVTLPMYYKL
B3: SEQ ID NO: 102: Glycine max protoporphyrinogen oxidase 1, chloroplastic, XP_003536005.1 (protein)
chain: MVSVFNEILFPPNQTLLRPSLHSPTSFFTSPTRKFPRSRPNPILRCSIAEESTASPPKTRDSAPVDCVVVGGGVSGLCIAQALATKHANANVVVTEARDRVGGNITTMERDGYLWEEGPNSFQPSDPMLTMVVDSGLKDELVLGDPDAPRFVLWNRKLRPVPGKLTDLPFFDLMSIGGKIRAGFGALGIRPPPPGHEESVEEFVRRNLGDEVFERLIEPFCSGVYAGDPSKLSMKAAFGKVWKLEKNGGSIIGGTFKAIQERNGASKPPRDPRLPKPKGQTVGSFRKGLTMLPDAISARLGNKVKLSWKLSSISKLDSGEYSLTYETPEGVVSLQCKTVVLTIPSYVASTLLRPLSAAAADALSKFYYPPVAAVSISYPKEAIRSECLIDGELKGFGQLHPRSQGVETLGTIYSSSLFPNRAPPGRVLLLNYIGGATNTGILSKTDSELVETVDRDLRKILINPNAQDPFVVGVRLWPQAIPQFLVGHLDLLDVAKASIRNTGFEGLFLGGNYVSGVALGRCVEGAYEVAAEVNDFLTNRVYK
modifications: Glycine max
B4: SEQ ID NO: 100: PPO from Rhizophagus sp. Protein. (protein, listed as Rhizophagus sp.)
chain: MSSPNNFVILGGGISGLSAAWYLSRYAPSTTKILVLEGSNRFGGWIKSKRVGQHKILFEQGPRTLRPNGIGGSVVLDMVNRLNLIPSLHAVTKDDDAAKDRFIYYPDKIVKLPGTSLLSSMKSVFTNNFLLKSIPSILFEPFIKPARNYHDETIHEFISRRFSKSISDILISALIHGIYAGDINKLSIRSTFTRLYNLEQKYGSVIKGLLMSNKEEFLSQQDKYLLKIINDENKDFLSIFKNVSLYSFKDGIEQLSSAIVNDLKNKENVQLKTNNQVTKLEFGENVKIFTNEAVYEADHVISALPSRALYNILPEKDVLPHLNYNPSVSVATINLAYAHPKILPVKGFGYLIPQSTPHNPYHVLGVVFDSNAMPLQDEPSRTYTKLTIMMGGHYFNSISEKDDFPKKEILLQQSIEILEKHLGIYSTPLYYLVDIQKNCIPQYYVGHYSRLKELHYAIKNHYANRLSVTGASYWGISINDCVLNSAKLVLNILSNSPNVVTGLEEVEIQNEHYL

Each molecule was assayed on Arabidopsis plants. Settings: Table 1; yes/no.
With B1 the “High concentration herbicide tolerance” value was “no”.
With B2 the “High concentration herbicide tolerance” value was “yes”.
In the case of B3, the “High concentration herbicide tolerance” value is reported as “no”.

Same assay, conditions: Table 2; yes/no; FIG. 6C legend: Star 1.25 kg/hectare
B1 was tested, and the Herbicide tolerance was “no”.
In the case of B2, the Herbicide tolerance is reported as “yes”.
B4 was tested, and the Herbicide tolerance was “no”.
